# Source: CN113372440A
# Assays:
# [1] = biological target: gH/gL glycoprotein on EBV virions produced by AKATA cells (Epstein-Barr virus) (UniProt P03231); assay: cell-based or functional assay
# [2] = biological target: gLgH蛋白 (recombinant single-chain EBV M81 gL ectodomain - linker - gH ectodomain - 6xHis) (Epstein-Barr virus (M81 strain, KF373730.1)); assay: ELISA, gLgH coated at 2 μg/mL, antibody titrated from 1 μg/mL (Fig. 2)
substance,measurement,setting,value
AMMO1 (针对EB病毒gLgH糖蛋白的人源中和单抗) (antibody),"IC50 in the epithelial cell infection model (HNE1 cells, GFP-EBV, inhibition of GFP-positive cells)",[1],0.0828 µg/mL
same,EC50,[2],0.0255 µg/mL
